Laboratory results published in paper PMC6916587, “The roles of factor Va and protein S in formation of the activated protein C/protein S/factor Va inactivation complex” (Journal of Thrombosis and Haemostasis, 2019).

T1: protein S (wild type) (UniProt P07225)
T1 sequence (chain, gamma-carboxyglutamate at 36 (printed as Gla36)): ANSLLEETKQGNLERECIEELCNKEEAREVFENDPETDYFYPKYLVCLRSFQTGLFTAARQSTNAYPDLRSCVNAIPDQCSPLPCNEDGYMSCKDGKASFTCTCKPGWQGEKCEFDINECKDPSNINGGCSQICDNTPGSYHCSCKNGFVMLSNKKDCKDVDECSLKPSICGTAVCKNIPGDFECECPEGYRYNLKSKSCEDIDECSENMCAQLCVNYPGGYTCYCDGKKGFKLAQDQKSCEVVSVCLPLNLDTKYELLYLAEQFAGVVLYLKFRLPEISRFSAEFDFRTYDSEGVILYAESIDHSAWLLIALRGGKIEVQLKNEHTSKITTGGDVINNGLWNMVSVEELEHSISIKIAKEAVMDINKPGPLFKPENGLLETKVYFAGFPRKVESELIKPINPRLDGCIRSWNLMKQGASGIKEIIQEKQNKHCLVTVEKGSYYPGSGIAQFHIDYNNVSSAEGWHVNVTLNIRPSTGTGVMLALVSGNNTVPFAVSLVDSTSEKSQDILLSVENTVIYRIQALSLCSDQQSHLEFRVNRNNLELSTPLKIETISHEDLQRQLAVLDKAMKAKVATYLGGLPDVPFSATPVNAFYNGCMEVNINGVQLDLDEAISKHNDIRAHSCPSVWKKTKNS

T2: β-chain-containing C4b-binding protein (C4BP), protein S-free (human, UniProt P04003 49-597; P20851 18-252)
T2 construct: source: purified from pooled fresh frozen citrated human plasma
T2 sequence (looked up) 1: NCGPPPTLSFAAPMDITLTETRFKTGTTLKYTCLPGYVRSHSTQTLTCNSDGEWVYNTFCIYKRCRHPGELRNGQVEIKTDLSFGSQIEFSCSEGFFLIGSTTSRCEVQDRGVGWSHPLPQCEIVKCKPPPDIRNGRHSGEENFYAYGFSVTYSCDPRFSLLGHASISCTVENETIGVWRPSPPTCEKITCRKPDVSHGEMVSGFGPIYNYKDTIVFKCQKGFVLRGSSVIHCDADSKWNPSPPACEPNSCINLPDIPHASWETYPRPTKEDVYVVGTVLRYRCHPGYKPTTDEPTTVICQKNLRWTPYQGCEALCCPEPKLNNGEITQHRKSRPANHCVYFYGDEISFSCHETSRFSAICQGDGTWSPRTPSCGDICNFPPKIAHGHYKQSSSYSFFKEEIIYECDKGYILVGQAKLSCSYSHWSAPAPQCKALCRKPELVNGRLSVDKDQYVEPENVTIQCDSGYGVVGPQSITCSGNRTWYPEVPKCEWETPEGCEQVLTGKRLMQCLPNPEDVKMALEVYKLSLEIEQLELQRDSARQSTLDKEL
T2 sequence (looked up) 2: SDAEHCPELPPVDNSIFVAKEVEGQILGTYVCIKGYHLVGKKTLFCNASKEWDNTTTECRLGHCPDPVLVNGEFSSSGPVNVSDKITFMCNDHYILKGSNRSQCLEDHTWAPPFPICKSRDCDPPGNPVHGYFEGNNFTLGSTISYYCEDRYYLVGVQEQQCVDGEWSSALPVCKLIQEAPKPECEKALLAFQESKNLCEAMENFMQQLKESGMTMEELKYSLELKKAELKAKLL

T3: activated factor V (FVa), wild type (UniProt P12259 29-737; P12259 1574-2224)
T3 construct: FVa heavy chain (A1-A2), cut from full-length recombinant FV by thrombin; FVa light chain (A3-C1-C2), cut from full-length recombinant FV by thrombin with release of the B domain; FV cDNA in vector pED from Dr Rodney Camire; also called WT FVa; factor Va
T3 sequence (looked up) 1: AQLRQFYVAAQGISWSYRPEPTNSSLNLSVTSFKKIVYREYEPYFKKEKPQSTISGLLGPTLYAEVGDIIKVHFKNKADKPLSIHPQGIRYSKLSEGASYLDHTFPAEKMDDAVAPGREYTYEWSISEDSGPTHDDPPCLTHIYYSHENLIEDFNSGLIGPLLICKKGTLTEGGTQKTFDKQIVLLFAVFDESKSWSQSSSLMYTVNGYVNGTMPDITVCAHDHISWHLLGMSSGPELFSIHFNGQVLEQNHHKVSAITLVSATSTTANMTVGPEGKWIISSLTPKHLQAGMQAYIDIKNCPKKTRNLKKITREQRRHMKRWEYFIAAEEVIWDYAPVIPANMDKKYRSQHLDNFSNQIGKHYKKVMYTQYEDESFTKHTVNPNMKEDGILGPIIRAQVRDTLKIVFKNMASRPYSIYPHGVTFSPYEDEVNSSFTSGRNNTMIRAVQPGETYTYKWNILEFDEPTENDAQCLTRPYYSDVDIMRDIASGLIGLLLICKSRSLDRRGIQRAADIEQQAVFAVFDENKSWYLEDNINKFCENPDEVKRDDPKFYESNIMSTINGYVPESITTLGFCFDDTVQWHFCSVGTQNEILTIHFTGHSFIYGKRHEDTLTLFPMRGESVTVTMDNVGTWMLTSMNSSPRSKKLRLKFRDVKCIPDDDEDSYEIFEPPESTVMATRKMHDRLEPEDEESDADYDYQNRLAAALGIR
T3 sequence (looked up) 2: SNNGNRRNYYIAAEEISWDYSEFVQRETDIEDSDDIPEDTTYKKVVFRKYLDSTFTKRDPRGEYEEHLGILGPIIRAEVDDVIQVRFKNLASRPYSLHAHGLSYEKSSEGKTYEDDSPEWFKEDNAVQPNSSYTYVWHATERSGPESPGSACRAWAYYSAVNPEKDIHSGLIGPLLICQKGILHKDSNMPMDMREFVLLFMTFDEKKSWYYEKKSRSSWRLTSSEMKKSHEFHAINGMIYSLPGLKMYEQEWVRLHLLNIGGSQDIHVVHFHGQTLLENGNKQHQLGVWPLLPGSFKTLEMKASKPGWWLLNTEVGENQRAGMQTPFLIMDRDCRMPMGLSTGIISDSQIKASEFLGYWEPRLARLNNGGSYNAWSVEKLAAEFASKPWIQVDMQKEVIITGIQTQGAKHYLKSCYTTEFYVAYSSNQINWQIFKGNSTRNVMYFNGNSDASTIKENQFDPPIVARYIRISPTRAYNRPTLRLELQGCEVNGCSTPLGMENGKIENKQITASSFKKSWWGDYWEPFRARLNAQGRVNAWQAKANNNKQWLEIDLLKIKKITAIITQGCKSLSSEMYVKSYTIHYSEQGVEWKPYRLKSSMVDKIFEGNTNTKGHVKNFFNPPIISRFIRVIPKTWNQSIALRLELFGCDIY


Assays:
protein S (wild type) = target: T1, protein S (wild type)
[1] = target: T2, β-chain-containing C4b-binding protein …; test: flow cytometry on phospholipid-coated magnetic beads; as a2, with 200 nmol/L β-chain-containing C4BP pre-incubated with 100 nmol/L protein S and 25 nmol/L FVa for 10 min before 50 nmol/L APC-Fluor; conditions: both partners purified
[2] = target: T3, activated factor V (FVa), wild type; test: as above; conditions: both partners purified

| FVa inactivation assay (remaining FVa activity by prothrombinase assay): protein S needed for inactivation comparable to WT FVa at 3 nmol/L protein S; 0.25 nmol/L APC, 25 μmol/L phospholipids, 10 min (protein S (wild type)) | FVa inactivation assay in the presence of protein S: APC (0-0.25 nmol/L) that reduces FVa activity by ~50%; 25 μmol/L phospholipids, 10 min (protein S (wild type)) | binding result [1] | binding result [2] | Molecule |
| --- | --- | --- | --- | --- |
| > 50 nmol/L | > 50 pmol/L | – | – | activated factor V Nara (FVa^Nara, W1920R) (from UniProt P12259 29-737; P12259 1574-2224) (natural protein) |
| – | – | binds | binds | protein S (wild type) (natural protein, UniProt P07225 42-676, looked up, gamma-carboxyglutamate at 36 (printed as Gla36), protein S, wild type; also called WT protein S; PS; source: HEK293 cells, stably transfected, purified (barium citrate precipitation, anion exchange chromatography)) ANSLLEETKQGNLERECIEELCNKEEAREVFENDPETDYFYPKYLVCLRSFQTGLFTAARQSTNAYPDLRSCVNAIPDQCSPLPCNEDGYMSCKDGKASFTCTCKPGWQGEKCEFDINECKDPSNINGGCSQICDNTPGSYHCSCKNGFVMLSNKKDCKDVDECSLKPSICGTAVCKNIPGDFECECPEGYRYNLKSKSCEDIDECSENMCAQLCVNYPGGYTCYCDGKKGFKLAQDQKSCEVVSVCLPLNLDTKYELLYLAEQFAGVVLYLKFRLPEISRFSAEFDFRTYDSEGVILYAESIDHSAWLLIALRGGKIEVQLKNEHTSKITTGGDVINNGLWNMVSVEELEHSISIKIAKEAVMDINKPGPLFKPENGLLETKVYFAGFPRKVESELIKPINPRLDGCIRSWNLMKQGASGIKEIIQEKQNKHCLVTVEKGSYYPGSGIAQFHIDYNNVSSAEGWHVNVTLNIRPSTGTGVMLALVSGNNTVPFAVSLVDSTSEKSQDILLSVENTVIYRIQALSLCSDQQSHLEFRVNRNNLELSTPLKIETISHEDLQRQLAVLDKAMKAKVATYLGGLPDVPFSATPVNAFYNGCMEVNINGVQLDLDEAISKHNDIRAHSCPSVWKKTKNS |
